B1: Fab-2916: anti-FZD5 Fab with antibody variable region Fv-2916; CDR SEQ ID NOs: 35, 36, 55, 94, 131, 167 (antibody, V domains shown)
VH: EVQLVESGGGLVQPGGSLRLSCAASGFNISYSSIHWVRQAPGKGLEWVASIYPSYSYTYYADSVKGRFTISADTSKNTAYLQMNSLRAEDTAVYYCARYGYYGMDYWGQGTLVTVSS
VL: DIQMTQSPSSLSASVGDRVTITCRASQSVSSAVAWYQQKPGKAPKLLIYSASSLYSGVPSRFSGSRSGTDFTLTISSLQPEDFATYYCQQWYHYPYLITFGQGTKVEIK
B2: Fab-2914: anti-FZD5 Fab with antibody variable region Fv-2914; CDR SEQ ID NOs: 35, 36, 53, 92, 129, 162 (antibody, V domains shown)
VH: EVQLVESGGGLVQPGGSLRLSCAASGFNIYYSYMHWVRQAPGKGLEWVASIYPSSSSTSYADSVKGRFTISADTSKNTAYLQMNSLRAEDTAVYYCARGAMDYWGQGTLVTVSS
VL: DIQMTQSPSSLSASVGDRVTITCRASQSVSSAVAWYQQKPGKAPKLLIYSASSLYSGVPSRFSGSRSGTDFTLTISSLQPEDFATYYCQQWYYGSLITFGQGTKVEIK
B3: Fab-2918: anti-FZD5 Fab with antibody variable region Fv-2918; CDR SEQ ID NOs: 35, 36, 57, 96, 133, 169 (antibody, V domains shown)
VH: B1 VH with I29L, P53S, Y57S, Y59S, Y99F, Y102W, G103A, M104I
VL: B2 VL with W91A, Y92F, Y93G, G94A, I97F
B4: Fab-2915: anti-FZD5 Fab with antibody variable region Fv-2915; CDR SEQ ID NOs: 35, 36, 54, 93, 130, 166 (antibody, V domains shown)
VH: EVQLVESGGGLVQPGGSLRLSCAASGFNIYYYSMHWVRQAPGKGLEWVASIYSSYGYTSYADSVKGRFTISADTSKNTAYLQMNSLRAEDTAVYYCARGYHYYPYYSGLDYWGQGTLVTVSS
VL: B2 VL with W91A, G94H
B5: Fab-2919: anti-FZD5 Fab with antibody variable region Fv-2919; CDR SEQ ID NOs: 35, 36, 58, 97, 134, 155 (antibody, V domains shown)
VH: B2 VH with Y30S, M34I, P53S, S56G, M101I
VL: DIQMTQSPSSLSASVGDRVTITCRASQSVSSAVAWYQQKPGKAPKLLIYSASSLYSGVPSRFSGSRSGTDFTLTISSLQPEDFATYYCQQWYSSGHVLITFGQGTKVEIK

Positions count from the first letter of the chain named.

For the first experiment, the system named is RWP1 cells. Briefly: Effect of anti-FZD5 Fabs on proliferation of pancreatic cancer cell lines (percent growth inhibition). It is filed as cell-based, human. To be noted: Fab 10 μg/ml. Here is the method: (§1) The effect of presently disclosed anti-FZD5 Fabs on proliferation of RNF43 loss-of-function mutant pancreatic cancer cell lines HPAFII, PATU8988S and ASPC-1; and on pancreatic cancer cell line RWP1, was tested at […] and 10 μg/ml.
B1: the “percent growth inhibition, RWP1 10 μg/ml” value turned out to be 30.61%.
As to B2, the “percent growth inhibition, RWP1 10 μg/ml” value came out at 78.98%.
Turning to B3, the “percent growth inhibition, RWP1 10 μg/ml” value was 39.24%.
For the molecule B4, the “percent growth inhibition, RWP1 10 μg/ml” value is listed as 45.04%.
Same read-out and setting: next, B5: 22.54%.

The next experiment has as its system HPAFII cells. The description is as above. In kind it is cell-based, human. To be noted: Fab 2 μg/ml. Here is the method:
as §1
For B1, the “percent growth inhibition, HPAFII 2 μg/ml” value is 31.28%.
Consider B2, for which the “percent growth inhibition, HPAFII 2 μg/ml” value was −4.97%.
The same measure, in the same setting: the same measure for B3: 37.15%; for B4: −16.37%.
In the case of B5, the “percent growth inhibition, HPAFII 2 μg/ml” value is listed as 16.25%.

The same experiment, now with this note: Fab 10 μg/ml.
On to B1, for which the “percent growth inhibition, HPAFII 10 μg/ml” value stood at 52.29%.
Same read-out and setting: the same measure for B2: 6.47%.
Still for that read-out and setting: the same measure for B3: 44.60%; for B4: −31.87%; for B5: 36.80%.

For the next experiment, the system named is ASPC-1 cells. The experiment is described as above. In kind it is cell-based, human. To be noted: Fab 10 μg/ml. Here is the method: as §1
In the case of B1, the “percent growth inhibition, ASPC-1 10 μg/ml” value stood at 42.26%.
Take B2: the “percent growth inhibition, ASPC-1 10 μg/ml” value stood at 38.30%.
Same read-out and setting: the same measure for B3: 45.56%; for B4: 4.18%.
As for B5, the “percent growth inhibition, ASPC-1 10 μg/ml” value was 35.99%.

Another experiment concerns PATU8988S cells. Described as above. In kind it is cell-based, human. To be noted: Fab 10 μg/ml. Here is the method: as §1
Regarding B1, the “percent growth inhibition, PATU8988s 10 μg/ml” value is listed as −19.08%.
Same read-out and setting: next, B2: −26.59%; B3: −1.92%.
The same measure, in the same setting: the same measure for B4: −19.02%; for B5: −11.49%.

The test system of another experiment is ASPC-1 cells. The experiment is described as above. In kind it is cell-based, human. To be noted: Fab 2 μg/ml.
Take B1: the “percent growth inhibition, ASPC-1 2 μg/ml” value amounted to 44.03%.
Turning to B2, the “percent growth inhibition, ASPC-1 2 μg/ml” value was 16.76%.
With B3, the “percent growth inhibition, ASPC-1 2 μg/ml” value is on record as 44.67%.
Same read-out and setting: the same measure for B4: 5.51%; for B5: 30.04%.

Another experiment concerns PATU8988S cells. Described as above. In kind it is cell-based, human. To be noted: Fab 2 μg/ml.
With B1, the “percent growth inhibition, PATU8988s 2 μg/ml” value was −25.67%.
Still for that read-out and setting: the same measure for B2: −15.14%; for B3: −0.86%; for B4: −6.43%.
B5: the “percent growth inhibition, PATU8988s 2 μg/ml” value is reported as −7.74%.

In another experiment the test system is RWP1 cells. The description is as above. It is filed as cell-based, human. To be noted: Fab 2 μg/ml.
On to B1, for which the “percent growth inhibition, RWP1 2 μg/ml” value turned out to be 1.68%.
Consider B2, for which the “percent growth inhibition, RWP1 2 μg/ml” value was found to be 68.03%.
Turning to B3, the “percent growth inhibition, RWP1 2 μg/ml” value stood at 3.49%.
On the same count and under the same terms, next, B4: 48.66%; B5: 7.36%.

Another experiment concerns the target T1, FZD6 CRD (Homo sapiens, UniProt O60353).
T1 construct: S20-P146; GPI anchor signal (C); expressed in transfected cells; host or cells: CHO cells, lentiviral pLenti-puro
T1 sequence (O60353 20-146): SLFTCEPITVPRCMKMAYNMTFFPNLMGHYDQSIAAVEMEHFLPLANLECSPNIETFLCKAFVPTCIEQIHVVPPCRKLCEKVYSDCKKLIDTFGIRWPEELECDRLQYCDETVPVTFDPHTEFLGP
Briefly: Immunofluorescence of anti-FZD5 Fab binding to CHO cells overexpressing Frizzled CRD.
Conditions: not given
Further details: key: −: no binding; +: very weak binder; ++: weak binder; +++: good binder; ++++: very good binder. A digest of the protocol: (§2)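 CHO cell lines each displaying a myc-tagged Frizzled CRD on the plasma membrane via GPI anchor. Recombinant anti-FZD5 Fab binding detected by immunofluorescence and flow cytometry.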
In the case of B1, the “Immunofluorescence binding, Frizzled CRD overexpressed on CHO cells: FZD6” value (“Immunofluorescence binding … FZD6” for short) was “−”.
Turning to B2, the “Immunofluorescence binding … FZD6” value was “−”.
The same measure, in the same setting: the same measure for B3: “−”; for B4: “−”.
Consider B5, for which the “Immunofluorescence binding … FZD6” value is listed as “−”.

For a further experiment, the target named is T2, FZD10 CRD (Homo sapiens, UniProt Q9ULW2).
T2 construct: 30-156; GPI anchor signal (C); expressed in transfected cells; host or cells: CHO cells, lentiviral pLenti-puro
T2 sequence (Q9ULW2 30-156): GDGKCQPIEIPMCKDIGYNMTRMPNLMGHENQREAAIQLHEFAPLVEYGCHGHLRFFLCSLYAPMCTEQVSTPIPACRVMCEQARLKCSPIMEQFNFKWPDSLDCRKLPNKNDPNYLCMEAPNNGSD
Described as above. Further details: key: −: no binding; +: very weak binder; ++: weak binder; +++: good binder; ++++: very good binder.
Conditions: not given
The gist of the method:
as §2
Turning to B1, the “Immunofluorescence binding, Frizzled CRD overexpressed on CHO cells: FZD10” value is “−”.
Consider B2, for which the “Immunofluorescence binding, Frizzled CRD overexpressed on CHO cells: FZD10” value is given as “−”.
Still for that read-out and setting: next, B3: “−”; B4: “−”; B5: “−”.

For another experiment, the target named is T3, FZD9 CRD (Homo sapiens, UniProt O00144).
T3 construct: G35-A161; GPI anchor signal (C); expressed in transfected cells; host or cells: CHO cells, lentiviral pLenti-puro
T3 sequence (O00144 35-161): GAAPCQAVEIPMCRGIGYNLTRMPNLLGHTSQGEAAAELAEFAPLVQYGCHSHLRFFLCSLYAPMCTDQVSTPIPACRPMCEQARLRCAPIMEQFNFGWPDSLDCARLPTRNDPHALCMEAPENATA
Described as above. Further details: key: −: no binding; +: very weak binder; ++: weak binder; +++: good binder; ++++: very good binder.
Conditions: not given
The gist of the method:
as §2
As for B1, the “Immunofluorescence binding, Frizzled CRD overexpressed on CHO cells: FZD9” value (from here on “Immunofluorescence binding … FZD9”) was “−”.
Regarding B2, the “Immunofluorescence binding … FZD9” value is reported as “−”.
Still for that read-out and setting: next, B3: “−”.
Take B4: the “Immunofluorescence binding … FZD9” value is listed as “−”.
On to B5, for which the “Immunofluorescence binding … FZD9” value is “−”.

The next experiment has as its target T4, FZD8 CRD (Homo sapiens, UniProt Q9H461).
T4 construct: K31-D155; GPI anchor signal (C); expressed in transfected cells; host or cells: CHO cells, lentiviral pLenti-puro
T4 sequence (Q9H461 31-155): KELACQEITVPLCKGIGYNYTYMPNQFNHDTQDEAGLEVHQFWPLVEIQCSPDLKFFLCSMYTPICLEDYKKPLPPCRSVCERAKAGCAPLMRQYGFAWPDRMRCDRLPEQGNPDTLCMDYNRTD
The description is as above. Further details: key: −: no binding; +: very weak binder; ++: weak binder; +++: good binder; ++++: very good binder.
Conditions: not given
The gist of the method:
as §2
In the case of B1, the “Immunofluorescence binding, Frizzled CRD overexpressed on CHO cells: FZD8” value was “+”.
Same read-out and setting: the same measure for B2: “++”; for B3: “+”.
B4: the “Immunofluorescence binding, Frizzled CRD overexpressed on CHO cells: FZD8” value is reported as “+”.
Still for that read-out and setting: next, B5: “++”.

A further experiment deals with T5, FZD2 CRD (Homo sapiens, UniProt Q14332).
T5 construct: D35-P161; GPI anchor signal (C); expressed in transfected cells; host or cells: CHO cells, lentiviral pLenti-puro
The experiment is described as above. Also on record: key: −: no binding; +: very weak binder; ++: weak binder; +++: good binder; ++++: very good binder.
Conditions: not given
A digest of the protocol:
as §2
Take B1: the “Immunofluorescence binding, Frizzled CRD overexpressed on CHO cells: FZD2” value is “++++”.
In the case of B2, the “Immunofluorescence binding, Frizzled CRD overexpressed on CHO cells: FZD2” value is “+++”.
Still for that read-out and setting: the same measure for B3: “−”; for B4: “+++”; for B5: “−”.
